This note sets out measurements from publication PMC3206906, “P50, the Small Subunit of DNA Polymerase Delta, Is Required for Mediation of the Interaction of Polymerase Delta Subassemblies with PCNA” (PLoS ONE, 2011).

This experiment addresses T1, digoxigenin (DIG)-labeled recombinant human PCNA (human, UniProt P12004 1-261, digoxigenin label (DIG Protein Labeling Kit); labeled residues not stated).
T1 construct: proliferating cell nuclear antigen (PCNA), human, recombinant wild type; Same protein as m1, chemically labeled with digoxigenin and used as the probe in the overlay; also called PCNA-DIG; DIG-labeled PCNA
The experiment can be described thus: far-Western, overlay or dot blot; Increasing amounts of non-tagged p50 or purified pol δ4 run on 12% SDS-PAGE and transferred to nitrocellulose; probed with DIG-labeled PCNA in PBS for one hour (1:10,000 dilution of 0.15 mg/ml stock); detected with Anti-DIG-HRP and ECL; films for p50 slightly overexposed. The conditions noted are these: both partners purified.

T1 sequence (P12004 whole entry): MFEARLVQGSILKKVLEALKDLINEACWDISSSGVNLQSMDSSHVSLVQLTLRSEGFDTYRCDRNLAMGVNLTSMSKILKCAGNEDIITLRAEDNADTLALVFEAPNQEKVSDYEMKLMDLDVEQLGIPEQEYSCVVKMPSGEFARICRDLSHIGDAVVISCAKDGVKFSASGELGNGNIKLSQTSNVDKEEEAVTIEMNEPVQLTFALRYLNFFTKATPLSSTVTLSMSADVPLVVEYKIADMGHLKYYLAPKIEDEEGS

B1: p12 subunit of recombinant human DNA polymerase δ four-subunit complex (natural protein, UniProt Q9HCU8 1-107, looked up)
chain: MGRKRLITDSYPVVKRREGPAGHSKGELAPELGEEPQPRDEEEAELELLRQFDLAWQYGPCTGITRLQRWCRAKQMGLEPPPEVWQVLKTHPGDPRFQCSLWHLYPL
notes: also called pol δ4 subunit p12; source: Bombyx mori (silkworm) bioreactor, purified as the pol δ four-subunit complex, resolved by SDS-PAGE
On to B1, for which the binding result is given as “binds”.
